From patent US20170107258A1 (CANCER RESEARCH TECHNOLOGY, published 2017)
[ ]: non-standard residue; d: D form. βSer = β-serine (lower case s in P1); βArg = β-arginine (lower case r); βLeu = β-leucine (lower case l)

T1: purified recombinant ADAM8
T1 sequence (Q05910 whole entry, species assumed, looked up): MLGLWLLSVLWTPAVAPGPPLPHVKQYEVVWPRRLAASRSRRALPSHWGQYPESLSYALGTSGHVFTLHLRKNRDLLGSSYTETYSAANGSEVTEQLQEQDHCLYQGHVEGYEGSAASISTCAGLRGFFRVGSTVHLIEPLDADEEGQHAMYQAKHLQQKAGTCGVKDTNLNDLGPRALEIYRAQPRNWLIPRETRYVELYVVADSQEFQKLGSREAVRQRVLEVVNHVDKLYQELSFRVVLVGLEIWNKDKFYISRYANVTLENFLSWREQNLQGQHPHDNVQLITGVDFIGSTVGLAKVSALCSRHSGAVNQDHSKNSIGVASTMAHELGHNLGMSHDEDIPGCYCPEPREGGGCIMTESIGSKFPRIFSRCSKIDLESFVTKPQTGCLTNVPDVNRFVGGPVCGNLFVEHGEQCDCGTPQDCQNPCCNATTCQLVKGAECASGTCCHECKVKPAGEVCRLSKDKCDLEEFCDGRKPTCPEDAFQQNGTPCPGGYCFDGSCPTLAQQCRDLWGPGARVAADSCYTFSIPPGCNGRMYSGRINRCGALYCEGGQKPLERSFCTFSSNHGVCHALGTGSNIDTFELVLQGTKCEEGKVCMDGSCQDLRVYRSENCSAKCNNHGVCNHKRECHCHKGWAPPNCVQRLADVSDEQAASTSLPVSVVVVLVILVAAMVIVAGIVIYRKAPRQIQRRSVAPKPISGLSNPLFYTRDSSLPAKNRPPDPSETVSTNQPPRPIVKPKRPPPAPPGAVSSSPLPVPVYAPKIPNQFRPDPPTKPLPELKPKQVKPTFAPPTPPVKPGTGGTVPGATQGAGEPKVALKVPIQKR


Assays:
Assay in all cases: cell-based or functional assay
[1] = biological target: T1, purified recombinant ADAM8
[2] = biological target: T1, purified recombinant ADAM8; remark: listed apart in the source
[3] = biological target: T1, purified recombinant ADAM8; remark: listed apart in the source

Binder	A8 Inhibition (IC50) [1] [nM]	IC50 of inhibition of ADAM8 catalytic activity [2] [nM]	ADAM inhibition with P1 (IC50; CD23 fluorogenic substrate) [3] [nM]
cyclo([βArg]LSKDK) [cyclic peptide P2, c(rLSKDK)]	> 500	–	–
cyclo(R[βLeu]SKDK) [cyclic peptide P3, c(RlSKDK)]	> 500	–	–
cyclo(RL[βSer]KDK) [cyclic peptide P1, c(RLsKDK), cyclo(Arg-Leu-{β-Ser}-Lys-Asp-Lys)]	100	~50	100
